In patent publication US20230287084A1:

Tests used:
Experiment in all cases: cell-based or functional assay
BMP-9 = target: T1, BMP-9 (UniProt Q9UK05)
T1 sequence (looked up): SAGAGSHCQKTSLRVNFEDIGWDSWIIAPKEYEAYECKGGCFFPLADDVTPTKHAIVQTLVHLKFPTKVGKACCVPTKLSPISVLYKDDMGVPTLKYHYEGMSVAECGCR

activin A = target: T2, activin A (UniProt P08476)
T2 sequence (looked up): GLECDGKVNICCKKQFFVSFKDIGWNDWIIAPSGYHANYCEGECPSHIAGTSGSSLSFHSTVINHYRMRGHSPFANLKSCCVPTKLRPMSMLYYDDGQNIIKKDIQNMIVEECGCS

activin B = target: T3, activin B (UniProt P09529)
T3 sequence (looked up): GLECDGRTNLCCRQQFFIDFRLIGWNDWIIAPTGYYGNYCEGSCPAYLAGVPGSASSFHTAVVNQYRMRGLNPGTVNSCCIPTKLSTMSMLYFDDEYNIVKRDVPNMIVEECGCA

BMP-10 = target: T4, BMP-10 (UniProt O95393)
T4 sequence (looked up): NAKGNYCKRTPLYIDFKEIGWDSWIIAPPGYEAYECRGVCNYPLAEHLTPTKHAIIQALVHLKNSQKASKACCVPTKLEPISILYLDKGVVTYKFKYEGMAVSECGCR

GDF-11 = target: T5, GDF-11 (UniProt O95390)
T5 sequence (looked up): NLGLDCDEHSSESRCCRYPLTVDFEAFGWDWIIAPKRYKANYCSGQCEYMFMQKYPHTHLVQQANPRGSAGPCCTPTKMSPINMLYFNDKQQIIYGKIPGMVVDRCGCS

GDF-8 = target: T6, GDF-8 (UniProt O14793)
T6 sequence (looked up): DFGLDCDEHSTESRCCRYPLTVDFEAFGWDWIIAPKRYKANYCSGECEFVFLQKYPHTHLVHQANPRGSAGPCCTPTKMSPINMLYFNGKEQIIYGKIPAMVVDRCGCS

Substance	Average IC50, BMP-9 neutralization (HepG2 BMP-reporter) (BMP-9) [nM]	Avg IC50, activin A neutralization (HEK293 TGFβ-reporter) (activin A) [nM]	Avg IC50, activin B neutralization (HEK293 TGFβ-reporter) (activin B) [nM]	Average IC50, BMP-10 neutralization (HepG2 BMP-reporter) (BMP-10) [nM]	Avg IC50, GDF-11 neutralization (HEK293 TGFβ-reporter) (GDF-11) [nM]	Avg IC50, GDF-8 neutralization (HEK293 TGFβ-reporter) (GDF-8) [nM]	further results
P75 (wild type human ActRIIB-ECD-Fc) (Fc fusion)	2.7	2.3	1.4	2	0.76	0.67	–
P444 (wild type human ActRIIA-ECD-Fc) (Fc fusion)	248	2.7	0.95	3.7	1.6	3.1	IC50, BMP-9 neutralization (HepG2 BMP-reporter) (BMP-9): > 100 nM; IC50, GDF-8 neutralization (HEK293 TGFβ-reporter) (GDF-8): 3.06 nM
P694 (hActRIIB - F58Y, 14aa linker, IgG1 FcDL) (Fc fusion)	1.8	0.79	1.3	1.9	0.73	0.65	–
P698 (hActRIIB - F58K, 3aa linker, IgG1 FcDL) (Fc fusion)	657	4.3	–	–	–	2.1	fold lower inhibition potency relative to P444 (BMP-9): 2.6 fold; fold higher inhibition potency relative to P444 (GDF-8): 1.5 fold
P701 (hActRIIB - F58K, 14aa linker, IgG1 FcDL) (Fc fusion)	386	0.52	0.55	0.96	0.75	1.1	–
P708 (hActRIIB - F58Q, 14aa linker, IgG1 FcDL) (Fc fusion)	110	0.62	0.66	1.4	0.42	0.55	–
P709 (hActRIIB - F58Q, 39aa linker, IgG1 FcDL) (Fc fusion)	58	0.42	–	–	–	0.29	fold increase of inhibition potency relative to P1218 (activin A): 2.6 fold; fold increase of inhibition potency relative to P1218 (GDF-8): 2.8 fold
P715 (hActRIIB - F58W, 14aa linker, IgG1 FcDL) (Fc fusion)	60	0.9	1.4	2.4	0.9	0.83	–
P718 (hActRIIB - D57E + F58E, 3aa linker, IgG1 FcDL) (Fc fusion)	> 1000	> 1000	> 1000	> 1000	> 1000	> 1000	–
P719 (hActRIIB - Q29Y + F58E, 14aa linker, IgG1 FcDL) (Fc fusion)	> 100	0.63	2.3	1.7	0.58	0.61	–
P720 (hActRIIB - D30Q + F58E, 14aa linker, IgG1 FcDL) (Fc fusion)	914	0.97	2.7	2.3	0.54	0.77	–
P757 (WT hActRIIB, 14aa linker, IgG1 FcDL) (Fc fusion)	0.27	0.47	0.55	1.2	0.34	0.31	% increase of potency relative to P75 (BMP-9): 900%; % increase of potency relative to P75 (activin A): 389%; % increase of potency relative to P75 (activin B): 155%; % increase of potency relative to P75 (BMP-10): 67%; % increase of potency relative to P75 (GDF-11): 124%; % increase of potency relative to P75 (GDF-8): 116%
P758 (hActRIIB - G27D, 14aa linker, IgG1 FcDL) (Fc fusion)	1.2	1.1	2.4	1.9	1.4	–	–
P759 (hActRIIB - D57E, 14aa linker, IgG1 FcDL) (Fc fusion)	> 1000	274	227	> 1000	137	397	% increase of potency relative to P120 (activin A): 73%; % increase of potency relative to P120 (activin B): 77%; % increase of potency relative to P120 (GDF-11): 86%; % increase of potency relative to P120 (GDF-8): 60%
P761 (hActRIIB - K31Y, 14aa linker, IgG1 FcDL) (Fc fusion)	8.7	8.4	41	22	8.6	12	% increase of potency relative to P124 (BMP-9): 83%; % decrease of potency relative to P124 (activin A): 58%; % decrease of potency relative to P124 (activin B): 88%; % decrease of potency relative to P124 (GDF-11): 61%; % decrease of potency relative to P124 (GDF-8): 64%
P762 (hActRIIB - V75Q, 14aa linker, IgG1 FcDL) (Fc fusion)	> 1000	> 1000	> 1000	> 1000	27	66	–
